We go through 4 substances from article PMC2888680.

Series [1] can be described thus: anti-NEU1 immunoblot, Phoenix-A lysates. Particulars: glycan lost; control: wild-type mNEU1. (Immunoblotting shows a protein as a band on a membrane.)
Series [2] in a line: limited in vitro trypsin proteolysis of purified protein. To be noted: glycan lost; control: wild-type mNEU1.
A short description of series [3]: anti-NEU1 immunoblot, transduced NEU1-deficient fibroblasts. To be noted: glycan lost; control: wild-type mNEU1.
A short description of series [4]: 4-MU-NANA activity, neu1-/- fibroblasts, PPCA cotransduced. Particulars: glycan lost; control: wild-type mNEU1 coexpressed with PPCA.
A short description of series [5]: 4-MU-NANA activity, Phoenix-A lysates, PPCA coexpressed. To be noted: glycan lost; control: wild-type mNEU1.
A short description of series [6]: 4-MU-NANA activity, neu1-/- fibroblasts, endogenous PPCA only. To be noted: glycan lost; control: wild-type mNEU1.

With murine NEU1 (mNEU1): N180D (mut1), the expression_or_secretion result in series [1] is given as “decreases”. Further, the stability_or_folding result in series [2] is recorded as “decreases”.
For murine NEU1 (mNEU1): N337D (mut2), the expression_or_secretion result in series [3] was “decreases”; in series [1], “no change”. For the same substance, in series [4], the enzymatic_activity result is reported as “no change”. Moreover, the stability_or_folding result in series [2] is “no change”. Besides, in series [5], the “enzymatic_activity, percent_of_wt” value is “decreases”.
murine NEU1 (mNEU1): N346D (mut3): the “enzymatic_activity, percent_of_wt” value in series [6] and in series [5] was “decreases” each time. The results for the expression_or_secretion entry in series [3] and in series [1] were “decreases” and “no change”, respectively. In addition, the stability_or_folding result in series [2] is on record as “no change”.
Turning to murine NEU1 (mNEU1): N372D (mut4), the “enzymatic_activity, percent_of_wt” value in series [6] and in series [5] was “no change” in each case. Moreover, the expression_or_secretion result in series [3] and in series [1] was “no change” throughout. In addition, the enzymatic_activity result in series [4] is “no change”. Further, the stability_or_folding entry in series [2] is “no change”.
